The target of one experiment is T1, BSA (bovine, UniProt P02769).
T1 construct: commercial preparation (Sigma); named on the sheet under 'Coating:'; also called bovine serum albumin (Sigma); control coating
Nature of the experiment: ELISA: coated BSA, FLAG-Ang2 0.25 µg/ml and 10D6 2 µg/ml, detected with anti-mouse IgG-HRP (OD450). On the procedure: A 96-well MaxiSorp™ flat-bottom plate (Nunc) was coated with 4 μg/ml of Tie2-Fc (R&D systems) or BSA (Sigma). Then, the plate was washed five times with 0.05% (v/v) Tween-20-containing PBS (Phosphate Buffer Saline) and blocked with 1% (v/v) BSA (Bovine serum albumin; Sigma)-containing PBS at a room temperature for 2 hours. 0.25 μg/ml of Ang2 and 2 μg/ml of 10D6 antibody were added to each well of the plate, which was allowed to react at a room temperature for 2 hours and then washed five times with PBST. After that, an anti-mouse IgG antibody (Sigma) conjugated with HRP diluted in 1% (v/v) BSA-containing PBS at a ratio of 1:5,000 (v/v) was added in an amount of 100 ul to each well to react at a room temperature for 1 hour and then, the plate was washed five times with PBST. Lastly, 100 ul (microliter) of TMB substrate (Cell Signaling) was added to each well of the plate to induce color development for 3 min. and then, the reaction was ceased by the addition of 100 ul of Stop solution (Cell Signaling) and OD450 values were measured on a plate reader (Molecular Devices).
A general note: An ELISA detects its analyte on a solid surface through an enzyme-linked reagent.

Experiment [1] concerns the target T2, recombinant hAng-2 (C-His, R&D Systems) (human, UniProt O15123 19-496).
T2 sequence: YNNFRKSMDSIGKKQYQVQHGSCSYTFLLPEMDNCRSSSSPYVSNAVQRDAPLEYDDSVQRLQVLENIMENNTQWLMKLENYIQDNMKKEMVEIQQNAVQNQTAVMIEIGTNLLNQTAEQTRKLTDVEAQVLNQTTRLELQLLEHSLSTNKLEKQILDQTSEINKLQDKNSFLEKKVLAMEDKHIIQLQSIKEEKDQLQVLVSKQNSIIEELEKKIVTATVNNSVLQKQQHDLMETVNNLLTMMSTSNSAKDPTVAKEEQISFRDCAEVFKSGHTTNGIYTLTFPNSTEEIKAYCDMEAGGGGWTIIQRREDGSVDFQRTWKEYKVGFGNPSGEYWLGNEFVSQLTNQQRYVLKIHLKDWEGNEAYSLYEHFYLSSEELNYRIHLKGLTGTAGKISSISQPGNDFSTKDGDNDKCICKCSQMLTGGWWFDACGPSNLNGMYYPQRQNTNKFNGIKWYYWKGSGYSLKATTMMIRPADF
Description: cell-based or functional assay.

For experiment [2], the target named is FLAG-tagged Ang2 RBD mutant P419A (human) (UniProt O15123). Nature of the experiment: ELISA; 10D6 coated (1000 nM), 250 ng FLAG-tagged Ang2 RBD mutant, anti-FLAG-HRP, OD450; reference native Ang2; cell may be cut off at the left.
For experiment [3], the target named is FLAG-tagged Ang2 RBD mutant at A449 (substituted with alanine (so in the source)) (human) (UniProt O15123). The experiment is described as above.
The target of experiment [4] is FLAG-tagged Ang2 RBD mutant Q418A (human) (UniProt O15123). Described as above.

T1 sequence (P02769 25-607 limits assumed): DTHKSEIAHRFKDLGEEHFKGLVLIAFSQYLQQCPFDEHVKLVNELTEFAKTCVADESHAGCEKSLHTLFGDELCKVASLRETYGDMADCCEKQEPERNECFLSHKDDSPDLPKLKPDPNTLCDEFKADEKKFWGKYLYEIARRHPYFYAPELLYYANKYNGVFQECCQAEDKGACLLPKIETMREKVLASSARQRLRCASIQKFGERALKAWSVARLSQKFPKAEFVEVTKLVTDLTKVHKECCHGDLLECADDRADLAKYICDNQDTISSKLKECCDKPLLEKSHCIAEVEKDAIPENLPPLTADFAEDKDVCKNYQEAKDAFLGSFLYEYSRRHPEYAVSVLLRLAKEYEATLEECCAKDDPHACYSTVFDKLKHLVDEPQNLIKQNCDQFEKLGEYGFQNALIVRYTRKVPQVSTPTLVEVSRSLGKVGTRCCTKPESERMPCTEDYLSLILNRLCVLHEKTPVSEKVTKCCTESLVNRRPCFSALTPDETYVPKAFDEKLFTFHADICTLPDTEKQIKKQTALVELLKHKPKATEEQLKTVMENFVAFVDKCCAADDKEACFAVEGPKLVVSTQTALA

B1: FLAG-tagged hAng-2 (ligand)
chain: YNNFRKSMDSIGKKQYQVQHGSCSYTFLLPEMDNCRSSSSPYVSNAVQRDAPLEYDDSVQRLQVLENIMENNTQWLMKLENYIQDNMKKEMVEIQQNAVQNQTAVMIEIGTNLLNQTAEQTRKLTDVEAQVLNQTTRLELQLLEHSLSTNKLEKQILDQTSEINKLQDKNSFLEKKVLAMEDKHIIQLQSIKEEKDQLQVLVSKQNSIIEELEKKIVTATVNNSVLQKQQHDLMETVNNLLTMMSTSNSAKDPTVAKEEQISFRDCAEVFKSGHTTNGIYTLTFPNSTEEIKAYCDMEAGGGGWTIIQRREDGSVDFQRTWKEYKVGFGNPSGEYWLGNEFVSQLTNQQRYVLKIHLKDWEGNEAYSLYEHFYLSSEELNYRIHLKGLTGTAGKISSISQPGNDFSTKDGDNDKCICKCSQMLTGGWWFDACGPSNLNGMYYPQRQNTNKFNGIKWYYWKGSGYSLKATTMMIRPADF
notes: not shown: FLAG tag
B1: in the experiment with BSA, the binding result was “no binding (tested: 0.25 µg/ml)”.

B2: SAIT-ANG2-AB-m10D6 (antibody, V domains shown)
VH: DVQLQESGPGLVKPSQSLSLTCTVTGYSITSDYAWNWIRQFPGNKLEWMGYINYSGNTDYNPSLKSRSSITRDTSKNQFFLQLNSVTTGDTATYYCARGNFEGAMDYWGQGTSVTVSS
VL: SIVMTQTPKFLLVSAGDRVTITCKASQSVSNDVAWYQQKPGQSPKLLIYYASNRYPGVPDRFTGSGYGTDFTFTISTVQAEDLAVYFCQQDYSSPWTFGGGTKLEIK
On to B2, for which, in experiment [1], the “Tie2 phosphorylation effect against the control antibody RG” value is approximately 8.6 fold against RG antibody. For the same molecule, in experiment [1], the “Tie2 phosphorylation level (pTyr/Tie2 ratio) in HUVEC cells, 60 nM antibody with Ang2” value was 180 % increase against Ang2 alone. The results for the binding affinity (%) with mutant Ang2 against the binding affinity with the native Ang2 in experiment [2], in experiment [3] and in experiment [4] were 1.08%, 7.86% and 8.94%, respectively.

The values above are taken from patent US20150030603A1 (SAMSUNG ELECTRONICS, published 2015).
